The values below come from PMC8666006 (Cancer cell, 2020).

This assay addresses MutLα (MLH1-PMS2) (human, UniProt P40692 1-756; P54278 1-862). Kind of assay: co-IP.

Chain of MutLα (MLH1-PMS2) (P40692 whole entry, chain 1 of 2): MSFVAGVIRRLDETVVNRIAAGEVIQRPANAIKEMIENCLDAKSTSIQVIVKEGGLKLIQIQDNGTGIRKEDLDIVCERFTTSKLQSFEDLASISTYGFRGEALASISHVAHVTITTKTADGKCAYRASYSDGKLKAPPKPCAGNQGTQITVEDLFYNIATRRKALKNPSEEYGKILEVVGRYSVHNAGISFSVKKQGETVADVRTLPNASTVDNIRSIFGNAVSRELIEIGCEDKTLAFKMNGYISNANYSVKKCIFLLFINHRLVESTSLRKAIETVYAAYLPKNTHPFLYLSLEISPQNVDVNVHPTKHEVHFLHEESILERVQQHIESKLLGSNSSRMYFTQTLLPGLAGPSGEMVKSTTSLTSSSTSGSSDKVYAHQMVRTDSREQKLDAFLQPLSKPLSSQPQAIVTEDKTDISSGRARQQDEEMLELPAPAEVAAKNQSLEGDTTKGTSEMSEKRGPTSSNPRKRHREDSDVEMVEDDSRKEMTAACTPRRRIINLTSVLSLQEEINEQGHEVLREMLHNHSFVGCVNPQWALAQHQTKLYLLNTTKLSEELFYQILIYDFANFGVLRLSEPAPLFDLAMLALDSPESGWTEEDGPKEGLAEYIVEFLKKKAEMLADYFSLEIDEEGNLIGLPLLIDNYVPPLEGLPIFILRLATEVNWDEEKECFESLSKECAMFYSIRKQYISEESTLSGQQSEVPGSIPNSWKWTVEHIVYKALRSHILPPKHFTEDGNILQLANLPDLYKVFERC
Chain of MutLα (MLH1-PMS2) (P54278 whole entry, chain 2 of 2): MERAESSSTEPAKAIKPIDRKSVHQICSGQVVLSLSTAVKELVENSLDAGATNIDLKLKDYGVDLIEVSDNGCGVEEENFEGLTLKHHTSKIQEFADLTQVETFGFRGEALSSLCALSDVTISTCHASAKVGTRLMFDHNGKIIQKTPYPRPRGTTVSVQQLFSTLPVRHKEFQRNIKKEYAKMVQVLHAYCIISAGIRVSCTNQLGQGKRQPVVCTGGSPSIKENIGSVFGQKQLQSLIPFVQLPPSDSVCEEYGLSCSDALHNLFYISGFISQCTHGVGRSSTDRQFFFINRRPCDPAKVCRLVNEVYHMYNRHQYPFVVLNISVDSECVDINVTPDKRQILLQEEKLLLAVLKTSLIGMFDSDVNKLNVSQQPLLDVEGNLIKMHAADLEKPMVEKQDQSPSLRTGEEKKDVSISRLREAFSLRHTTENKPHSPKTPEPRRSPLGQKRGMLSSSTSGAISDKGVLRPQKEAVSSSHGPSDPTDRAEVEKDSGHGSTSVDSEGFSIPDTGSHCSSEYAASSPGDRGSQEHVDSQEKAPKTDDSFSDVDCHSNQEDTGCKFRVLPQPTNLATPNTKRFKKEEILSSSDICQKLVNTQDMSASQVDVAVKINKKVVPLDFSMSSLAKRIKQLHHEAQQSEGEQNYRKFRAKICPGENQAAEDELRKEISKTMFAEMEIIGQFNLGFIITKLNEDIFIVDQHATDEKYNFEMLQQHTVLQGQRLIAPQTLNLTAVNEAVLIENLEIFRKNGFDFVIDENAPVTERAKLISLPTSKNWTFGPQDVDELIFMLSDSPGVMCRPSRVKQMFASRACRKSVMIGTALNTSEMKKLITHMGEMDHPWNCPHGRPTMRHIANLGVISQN

B1: Exo1-FF-AA (enzyme, human, UniProt Q9UQ84 1-846, looked up)
chain: MGIQGLLQFIKEASEPIHVRKYKGQVVAVDTYCWLHKGAIACAEKLAKGEPTDRYVGFCMKFVNMLLSHGIKPILVFDGCTLPSKKEVERSRRERRQANLLKGKQLLREGKVSEARECFTRSINITHAMAHKVIKAARSQGVDCLVAPYEADAQLAYLNKAGIVQAIITEDSDLLAFGCKKVILKMDQFGNGLEIDQARLGMCRQLGDVFTEEKFRYMCILSGCDYLSSLRGIGLAKACKVLRLANNPDIVKVIKKIGHYLKMNITVPEDYINGFIRANNTFLYQLVFDPIKRKLIPLNAYEDDVDPETLSYAGQYVDDSIALQIALGNKDINTFEQIDDYNPDTAMPAHSRSHSWDDKTCQKSANVSSIWHRNYSPRPESGTVSDAPQLKENPSTVGVERVISTKGLNLPRKSSIVKRPRSAELSEDDLLSQYSLSFTKKTKKNSSEGNKSLSFSEVFVPDLVNGPTNKKSVSTPPRTRNKFATFLQRKNEESGAVVVPGTRSRAACSSDSTDCVSNKVSIQPLDETAVTDKENNLHESEYGDQEGKRLVDTDVARNSSDDIPNNHIPGDHIPDKATVFTDEESYSFESSKFTRTISPPTLGTLRSCFSWSGGLGDFSRTPSPSPSTALQQFRRKSDSPTSLPENNMSDVSQLKSEESSDDESHPLREEACSSQSQESGEFSLQSSNASKLSQCSSKDSDSEESDCNIKLLDSQSDQTSKLRLSHFSKKDTPLRNKVPGLYKSSSADSLSTTKIKPLGPARASGLSKKPASIQKRKHHNAENKPGLQIKLNELWKNFGFKKDSEKLPPCKKPLSPVRDNIQLTPEAEEDIFNKPECGRVQRAIFQ
As to B1, the binding result is on record as “binds”.

B2: Exo1-ΔC (domain or fragment, human, UniProt Q9UQ84 1-602, looked up)
chain: MGIQGLLQFIKEASEPIHVRKYKGQVVAVDTYCWLHKGAIACAEKLAKGEPTDRYVGFCMKFVNMLLSHGIKPILVFDGCTLPSKKEVERSRRERRQANLLKGKQLLREGKVSEARECFTRSINITHAMAHKVIKAARSQGVDCLVAPYEADAQLAYLNKAGIVQAIITEDSDLLAFGCKKVILKMDQFGNGLEIDQARLGMCRQLGDVFTEEKFRYMCILSGCDYLSSLRGIGLAKACKVLRLANNPDIVKVIKKIGHYLKMNITVPEDYINGFIRANNTFLYQLVFDPIKRKLIPLNAYEDDVDPETLSYAGQYVDDSIALQIALGNKDINTFEQIDDYNPDTAMPAHSRSHSWDDKTCQKSANVSSIWHRNYSPRPESGTVSDAPQLKENPSTVGVERVISTKGLNLPRKSSIVKRPRSAELSEDDLLSQYSLSFTKKTKKNSSEGNKSLSFSEVFVPDLVNGPTNKKSVSTPPRTRNKFATFLQRKNEESGAVVVPGTRSRFFCSSDSTDCVSNKVSIQPLDETAVTDKENNLHESEYGDQEGKRLVDTDVARNSSDDIPNNHIPGDHIPDKATVFTDEESYSFESSKFTRTISPPTL
Regarding B2, the binding result was “binds”.
